Reference: US20150376619, “APTAMERS THAT BIND CD271” (VIVONICS, INC., published 2015)

Target: T1, CD271 (NGFR, p75NTR)/Fc chimera (Homo sapiens, UniProt P08138 P08138:29-250)
T1 chain: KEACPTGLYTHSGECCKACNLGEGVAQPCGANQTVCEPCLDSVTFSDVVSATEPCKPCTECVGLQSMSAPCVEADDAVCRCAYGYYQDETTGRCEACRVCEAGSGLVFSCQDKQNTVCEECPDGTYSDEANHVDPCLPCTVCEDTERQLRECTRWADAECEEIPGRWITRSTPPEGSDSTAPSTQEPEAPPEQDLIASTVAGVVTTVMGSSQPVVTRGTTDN
Assay: size exclusion HPLC, 0.01 M PBS pH 7.4, room temperature, aptamer to protein 5:1; complex elutes at 21.2 min
Conditions: tags: human IgG1 Fc chimera, Sigma-Aldrich N8898 (lyophilized with PBS salts and BSA); chain copies: 2; label: biotin

B1: 1391-Motif (ssDNA)
DNA: TACGACTCACTATAGGGATCCAAGAAAGAAAAAGGAGAAAGGGGGGGGGGAATTCCCTTTAGTGAGGGTT
modifications: biotinylated for SPR
**Q.** Does B1 bind?
**A.** binds
